Measured values from PMC6471336, “Production and Characterization of Recombinant Wild Type Uricase from Indonesian Coelacanth (L. menadoensis) and Improvement of Its Thermostability by In Silico Rational Design and Disulphide Bridges Engineering” (International Journal of Molecular Sciences, 2019).

Tests used:
[1] = biological target: the molecule itself; assay: SEC; 16/60 Sephacryl S-300 HR gel-filtration column; molecular weight under native condition calculated from the retention volume (Kav) against a calibration curve
purified protein = substrate: O=c1[nH]c(=O)c2[nH]c(=O)[nH]c2[nH]1; assay: purified protein; type: biochemical, Latimeria menadoensis; conditions: 50 mM sodium borate pH 8.0, 30 °C, 15-120 µM uric acid

B1: L. menadoensis uricase, wild type (LM-UOX-6His) (enzyme, UniProt M3XGK0 1-306, looked up)
chain: MSHYVSSTRFQKDTDVEFVRTGYGKNIVKVLHIKREGKTHYIKEVEVAVQLALKSRKDYLYGDNSDIIPTDTMKNTVHALAKLKGINTIEEFAMDICEHFLTSFNHVTRANTYVEEAPWKRMEKNEVKHVHAFIYSPEATRFCEVEHHQNEPPVVHSGIKDMKVLKTTQSGFEGFVKDRFTTLPEVTDRCFSTVIYSKWLYNRSKNIDFDAAWKTVYDVIIEKFAGPYECGEYSPSVQKTLYETQVLCLNRVPEIEEVEIVMPNKHYFTIDMSKIGIVNKDEVLLPLDNPSGNITGTVRRKAHSKL
notes: Uricase (urate oxidase) of Latimeria menadoensis, 306 amino acids; synthetic cDNA amplified with primers from the start codon to the last codon (no stop codon), cloned NdeI/XhoI into pET20b(+); The His6 tag is joined to the protein by two residues from the XhoI site; also called WT; WT LM-UOX; source: E. coli BL21(DE3), purified (Ni-NTA IMAC, gel filtration); not shown: His6, C-terminal, kept
stoichiometry N [1]: 4
Km (purified protein): 18.43 ± 0.4 µM
kcat (purified protein): 29.9 ± 0.3 s⁻¹
kcat/Km (purified protein): 1.62e+06 M⁻¹ s⁻¹

B2: L. menadoensis uricase A132C/A225C mutant (enzyme, UniProt M3XGK0 1-306, looked up)
chain: MSHYVSSTRFQKDTDVEFVRTGYGKNIVKVLHIKREGKTHYIKEVEVAVQLALKSRKDYLYGDNSDIIPTDTMKNTVHALAKLKGINTIEEFAMDICEHFLTSFNHVTRANTYVEEAPWKRMEKNEVKHVHCFIYSPEATRFCEVEHHQNEPPVVHSGIKDMKVLKTTQSGFEGFVKDRFTTLPEVTDRCFSTVIYSKWLYNRSKNIDFDAAWKTVYDVIIEKFCGPYECGEYSPSVQKTLYETQVLCLNRVPEIEEVEIVMPNKHYFTIDMSKIGIVNKDEVLLPLDNPSGNITGTVRRKAHSKL
notes: His6 tag joined by two residues from the XhoI site, as in m1; source: E. coli BL21(DE3), purified (Ni-NTA IMAC, gel filtration); not shown: His6, C-terminal, kept
stoichiometry N [1]: 4
Km (purified protein): 39.19 ± 0.5 µM
kcat (purified protein): 58.2 ± 0.6 s⁻¹
kcat/Km (purified protein): 1.49e+06 M⁻¹ s⁻¹

B3: L. menadoensis uricase I27C/N289C mutant (enzyme, UniProt M3XGK0 1-306, looked up)
chain: MSHYVSSTRFQKDTDVEFVRTGYGKNCVKVLHIKREGKTHYIKEVEVAVQLALKSRKDYLYGDNSDIIPTDTMKNTVHALAKLKGINTIEEFAMDICEHFLTSFNHVTRANTYVEEAPWKRMEKNEVKHVHAFIYSPEATRFCEVEHHQNEPPVVHSGIKDMKVLKTTQSGFEGFVKDRFTTLPEVTDRCFSTVIYSKWLYNRSKNIDFDAAWKTVYDVIIEKFAGPYECGEYSPSVQKTLYETQVLCLNRVPEIEEVEIVMPNKHYFTIDMSKIGIVNKDEVLLPLDCPSGNITGTVRRKAHSKL
notes: His6 tag joined by two residues from the XhoI site, as in m1; which cysteines pair (C27 with C289 of the other subunit of a dimer) is a prediction only; source: E. coli BL21(DE3), purified (Ni-NTA IMAC, gel filtration); not shown: His6, C-terminal, kept
stoichiometry N [1]: 4
Km (purified protein): 35.39 ± 0.1 µM
kcat (purified protein): 32.58 ± 0.2 s⁻¹
kcat/Km (purified protein): 920000 M⁻¹ s⁻¹

B4: L. menadoensis uricase N289C mutant (enzyme, UniProt M3XGK0 1-306, looked up)
chain: MSHYVSSTRFQKDTDVEFVRTGYGKNIVKVLHIKREGKTHYIKEVEVAVQLALKSRKDYLYGDNSDIIPTDTMKNTVHALAKLKGINTIEEFAMDICEHFLTSFNHVTRANTYVEEAPWKRMEKNEVKHVHAFIYSPEATRFCEVEHHQNEPPVVHSGIKDMKVLKTTQSGFEGFVKDRFTTLPEVTDRCFSTVIYSKWLYNRSKNIDFDAAWKTVYDVIIEKFAGPYECGEYSPSVQKTLYETQVLCLNRVPEIEEVEIVMPNKHYFTIDMSKIGIVNKDEVLLPLDCPSGNITGTVRRKAHSKL
notes: Uricase (urate oxidase) of Latimeria menadoensis, 306 amino acids, same construct as the wild type (pET20LM-UOX) with N289C by site-directed mutagenesis; His6 tag joined by two residues from the XhoI site, as in m1; source: E. coli BL21(DE3), purified (Ni-NTA IMAC, gel filtration); not shown: His6, C-terminal, kept
stoichiometry N [1]: 4
Km (purified protein): 30.46 ± 0.1 µM
kcat (purified protein): 34.06 ± 0.1 s⁻¹
kcat/Km (purified protein): 1.12e+06 M⁻¹ s⁻¹

B5: L. menadoensis uricase D288C mutant (enzyme, UniProt M3XGK0 1-306, looked up)
chain: MSHYVSSTRFQKDTDVEFVRTGYGKNIVKVLHIKREGKTHYIKEVEVAVQLALKSRKDYLYGDNSDIIPTDTMKNTVHALAKLKGINTIEEFAMDICEHFLTSFNHVTRANTYVEEAPWKRMEKNEVKHVHAFIYSPEATRFCEVEHHQNEPPVVHSGIKDMKVLKTTQSGFEGFVKDRFTTLPEVTDRCFSTVIYSKWLYNRSKNIDFDAAWKTVYDVIIEKFAGPYECGEYSPSVQKTLYETQVLCLNRVPEIEEVEIVMPNKHYFTIDMSKIGIVNKDEVLLPLCNPSGNITGTVRRKAHSKL
notes: Uricase (urate oxidase) of Latimeria menadoensis, 306 amino acids, same construct as the wild type (pET20LM-UOX) with D288C by site-directed mutagenesis; His6 tag joined by two residues from the XhoI site, as in m1; source: E. coli BL21(DE3), purified (Ni-NTA IMAC, gel filtration); not shown: His6, C-terminal, kept
stoichiometry N [1]: 4
Km (purified protein): 189.65 ± 0.2 µM
kcat (purified protein): 65.07 ± 0.3 s⁻¹
kcat/Km (purified protein): 340000 M⁻¹ s⁻¹

B6: L. menadoensis uricase S136C mutant (enzyme, UniProt M3XGK0 1-306, looked up)
chain: MSHYVSSTRFQKDTDVEFVRTGYGKNIVKVLHIKREGKTHYIKEVEVAVQLALKSRKDYLYGDNSDIIPTDTMKNTVHALAKLKGINTIEEFAMDICEHFLTSFNHVTRANTYVEEAPWKRMEKNEVKHVHAFIYCPEATRFCEVEHHQNEPPVVHSGIKDMKVLKTTQSGFEGFVKDRFTTLPEVTDRCFSTVIYSKWLYNRSKNIDFDAAWKTVYDVIIEKFAGPYECGEYSPSVQKTLYETQVLCLNRVPEIEEVEIVMPNKHYFTIDMSKIGIVNKDEVLLPLDNPSGNITGTVRRKAHSKL
notes: Uricase (urate oxidase) of Latimeria menadoensis, 306 amino acids, same construct as the wild type (pET20LM-UOX) with S136C by site-directed mutagenesis; His6 tag joined by two residues from the XhoI site, as in m1; source: E. coli BL21(DE3), purified (Ni-NTA IMAC, gel filtration); not shown: His6, C-terminal, kept
stoichiometry N [1]: 4
Km (purified protein): 15.28 ± 0.1 µM
kcat (purified protein): 22.49 ± 0.1 s⁻¹
kcat/Km (purified protein): 1.47e+06 M⁻¹ s⁻¹
